The test concerns the target T1, NSL1, full length (subunit of the full-length MIS12C in the KMN assembly) (human, UniProt Q96IY1 1-281).
T1 sequence (looked up): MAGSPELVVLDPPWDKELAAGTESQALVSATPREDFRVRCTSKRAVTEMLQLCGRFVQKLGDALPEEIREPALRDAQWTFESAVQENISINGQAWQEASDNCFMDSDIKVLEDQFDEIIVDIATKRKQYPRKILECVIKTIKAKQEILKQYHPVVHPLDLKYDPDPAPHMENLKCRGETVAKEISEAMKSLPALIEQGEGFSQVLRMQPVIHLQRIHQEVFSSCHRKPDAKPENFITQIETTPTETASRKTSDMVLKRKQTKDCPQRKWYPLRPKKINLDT
Kind of test: cross-linking; 10-subunit KMN assembly with a CENP-C fragment, 45 μg at 1 mg/ml, 650 μM BS3 (d0/d12), 30 min at 37°C; trypsin or AspN digest, tandem mass spectrometry (xQuest). The settings on record: both partners purified.

B1: ZWINT (natural protein, human, UniProt O95229 1-277, looked up)
chain: MEAAETEAEAAALEVLAEVAGILEPVGLQEEAELPAKILVEFVVDSQKKDKLLCSQLQVADFLQNILAQEDTAKGLDPLASEDTSRQKAIAAKEQWKELKATYREHVEAIKIGLTKALTQMEEAQRKRTQLREAFEQLQAKKQMAMEKRRAVQNQWQLQQEKHLQHLAEVSAEVRERKTGTQQELDRVFQKLGNLKQQAEQERDKLQRYQTFLQLLYTLQGKLLFPEAEAEAENLPDDKPQQPTRPQEQSTGDTMGRDPGVSFKAVGLQPAGDVNLP
notes: ZWINT, human, subunit of KNL1C in the cross-linked 10-subunit KMN assembly; also called Zwint1
Take B1: the binding result is “binds”.

Source of the values: article PMC5101189, “Structure of the MIS12 Complex and Molecular Basis of Its Interaction with CENP-C at Human Kinetochores” (Cell, 2016).
